Assay results published in patent US20190127480A1 (Regeneron, published 2019).
Like-named read-outs stand apart in the source and are kept apart here.

B1: H1H7223P (antibody, human IgG1, V domains shown)
VH: QVQLVESGGGLVQPGRSLRLSCAASGFTFADYTMHWVRQAPGKGLEWVSDISWNSGSMGYADSVKGRFTISRDNAKKSLYLQMNSLRTEDTALYYCAKDGSGYGKYFFYAMDVWGQGTTVTVSS
VL: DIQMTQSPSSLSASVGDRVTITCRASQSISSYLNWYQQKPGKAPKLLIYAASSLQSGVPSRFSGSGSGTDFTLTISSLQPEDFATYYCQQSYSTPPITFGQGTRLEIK
notes: Monovalent 1-arm format: second Fab removed, only the Fc portion (CH2-CH3) expressed; human IgG1 Fc; tied by the numerical identifier; also called H1H7223B
B2: H1H7269P (antibody, human IgG1, V domains shown)
VH: QVQLVESGGGLVQPGRSLRLSCAASGFKFDDYTMHWVRQGPGKGLEWVSDISWSGGSIDYTDSVKGRFSISRDNAKNSLYLQMNSLRVEDTALYYCVKDKSGYGKYSYGLDVWGQGTTVTVSS
VL: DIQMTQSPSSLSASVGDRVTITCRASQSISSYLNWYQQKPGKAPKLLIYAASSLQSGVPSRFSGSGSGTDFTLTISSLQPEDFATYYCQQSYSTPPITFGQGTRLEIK
notes: Monovalent 1-arm format: second Fab removed, only the Fc portion (CH2-CH3) expressed; human IgG1 Fc; tied by the numerical identifier; also called H1H7269B
B3: H1H5752P (antibody, human IgG1, V domains shown)
VH: QVQLVESGGGVVQPGRSLRPSCAASGFSFRDYGMHWVRQAPGKGLEWMAHIWYNGKNKYYADSVKGRFTISRDNSKNTLYLQMNSLRPEDTAVYYCARDGVSARGTPFDYWGQGTLVTVSS
VL: ETTLTQSPAFMSAAPGDKVSISCIASQYIDDDVNWYQQKPGETAIFIIQEASTLVPGISPRFSGSGYGTHFTLTINNIDSEDAAFYFCLQHDNFPYTFGQGTKLEIK
notes: H1H: human IgG1 Fc
B4: H1H5753B (antibody, V domains shown)
VH: QVQLVESGGGLVQPGGSLRLSCAASYFTFSSFAMNWVRQAPGQGLEWVSAISGRVSAISGSGGITYYADSVKGRFIISRDNSKNTLYLQMSGLRAEDTAVYYCAKGPYLTTVTPFDYWGQGTLVTVSS
VL: DIQLTQSPSSVSASVGDRVTITCRASQGISSWLAWYQQKPGKAPKLLIYAVSSLQNGVPSRFSGSGSGTDFTLTISSLQPEDFATYYCQQANSFPFTFGPGTKLEIK
B5: H1H5755B (antibody, human IgG1, V domains shown)
VH: EVQLVESGGGVVQPGRSLRLSCAASGFTFSNYGMHWVRQAPGKGLEWVTVILHDGSYKYYADSVKGRFTISRDNSKNTLHLQMNSLRTEDTAVYYCAKGPMFRGVPYNHYYGMDVWGQGTTVTVSS
VL: DIQMTQSPSSLSASVGDRVTITCRASQGIRNDLGWYQQKPGKAPKRLIYAASSLQSGVSSRFSGSGSGTEFTLTISSLQPEDFATYYCLQHNSYPYTFGQGTKVEIKR
notes: H1H: human IgG1 Fc
B6: H1H5757B (antibody, human IgG1, V domains shown)
VH: EVQLVESGGGVVQPGRSLRLSCAASGFTFSSYGMHWVRQAPGKGLEWVTVILHDGSNRYSADSVKGRFTISRDNSKNTLYLQMNILRVEDTAVYYCTKGAMVRGVPYNHYYGMDVWGQGTTVTVSS
VL: DIQMTQSPSSLSASVGDRVTITCRASQGIRNDLGWYQQKPGKAPKRLIYAASILQSGVPSRFSGSGSGTEFTLTISSLQPEDFATYYCLQHNSYPYTFGQGTKLEIKR
notes: H1H: human IgG1 Fc
B7: H1H5758B (antibody, human IgG1, V domains shown)
VH: EVQLVESGGGVVQPGRSLRLSCAASGFTFSSYGMHWVRQAPGKGLEWVTVILHDGSNRYYADSVKGRFTISRDNSKNTLYLQMNILRAEDTAVYYCTKGAMVRGVPYNHYYGMDVWGQGTTVTVSS
VL: DIVMTQSPSSLSASVGDRVTITCRASQGIRNDLGWYQQKPGKAPKRLIYAASNLQSGVPSRFSGSGSGTEFTLTISSLQPEDFATYYCLQHNSYPYTFGQGTKLEIKR
notes: H1H: human IgG1 Fc
B8: H1H5782P (antibody, human IgG1, V domains shown)
VH: EVQLVESGGGLVQPGRSLRLSCAASGFTFDDYAMHWVRQAPGKGLEWVSGISWNSGSKDYADSVKGRFTISRDNTRNSLFLQMNSLRTEDTALYYCAKDKSGYGSFYYGMDVWGQGTTVTVSS
VL: not shown
notes: H1H: human IgG1 Fc
B9: H1H5786B (antibody, human IgG1, V domains shown)
VH: QVQLVESGAEVKKPGASVKVSCKTSGYTFTGYYMHWIRQAPGQGLEWMGWINPKSGGTNYAQKFQGRVTMTRDTSISTAYMELSRLRSDDMAVYYCARMGDGAVFDFWGQGTLVTVSS
VL: AIQMTQSPSSLSASVGDRVTITCRASQRISSFLNWYQQKPGKAPKLLIYTASNLQNGVPSRFSGSGSGTDFTLTISSLQPEDFATYYCQQSYRTPLTFGGGTKVEIKR
notes: H1H: human IgG1 Fc
B10: H1H5791B (antibody, human IgG1, V domains shown)
VH: QVQLVESGAEVKKPGASVKVSCKTSGYTLSGYYMHWMRQAPGQGLEWMGWINPKSGVTNYAQKFQDRVAMTRDTSISTAYMELSRLRSDDTAVYYCARMGDGAVFDFWAQGTLVTVSS
VL: DIQLTQSPSSLSASVGDRVTITCRASQRISSFLNWYQQKPGKAPKLLIYTASNLQNGVPSRFSGSGSGTDFTLTISSLQPEDFATYYCQQSYRTPLTFGGGTKLEIKR
notes: H1H: human IgG1 Fc
B11: H1H5790B (antibody, human IgG1, V domains shown)
VH: EVQLVESGGGVVQPGRSLRLSCAASGFTFSYYGMHWVRQAPGKGLEWVAVISFDGKNKYYADSVMGRFTISRDNSKNTLYLQMNSLRAEDSAVFFCARSYDILTGYGAGYSYHYGMDVWGQGTTVTVSS
VL: AIQMTQSPSSLSASVGDRVTITCRASQRISSFLNWYQQKPGKAPKLLIYTASNLQNGVPSRFSGSGSGTDFTLTISSLQPEDFATYYCQQSYRTPLTFGGGTKVEIKR
notes: H1H: human IgG1 Fc
B12: H1H5792B (antibody, human IgG1, V domains shown)
VH: QVQLVESGGGVVQPGRSLRLSCAASGFTFSSYGMHWVRQAPGKGLEWVSTISFDGSNKYYADSVKGRFTISRDNSKNTLYLQMNSLRPEDTAVYYCAKGGGTSGSYFYYGMDVWGQGTTVTVSS
VL: AIQMTQSPSSLSASVGDRVTITCRASQRISSFLNWYQQKPGKAPKLLIYTASNLQNGVPSRFSGSGSGTDFTLTISSLQPEDFATYYCQQSYRTPLTFGGGTKLEIKR
notes: H1H: human IgG1 Fc
B13: H1H5793B (antibody, human IgG1, V domains shown)
VH: QVQLVQSGTEVKKPGASMKVSCKASGYTFTGYYIHWVRQAPGQGLEWMGWINPNSDVTKYAQKFQGRVTLTRDTSISAAYIDLSRLRSDDTAIYYCARMGDGAVFDYWGQGTLVTVSS
VL: DIQLTQSPSSLSASVGDRVTITCRASQRISSYLNWYQQKPGKAPKVLISVASSLQSGVPSRFSGSGFGTDFTLTISSLQPEDSASYYCQQSYNTPLTFGGGTKLEIKR
notes: H1H: human IgG1 Fc
B14: H1H5797B (antibody, human IgG1, V domains shown)
VH: QVQLVQSGTEVKKPGASVKVSCKASGYTFTGYYMHWVRQAPGQGLEWMGWINPNSDVTNYAQKFQGRVTLTRDTSISTAYIDLSRLRSDDTAIYYCARMGDGAVFDYWGQGTLVTVSS
VL: DIQMTQSPSSLSASVGDRVTITCRASQRISSYLNWYQQKPGKAPKVLISVASSLQSGVPSRFSGSGSGTDFTLTISSLQPEDFASYYCQQSYNTPLTFGGGTKVEIKR
notes: H1H: human IgG1 Fc
B15: H1H5795B (antibody, human IgG1, V domains shown)
VH: EVQLVESGAEVKKPGASVKVSCKTSGYSFIGYYIHWMRQAPGQGLEWMGWINPKSGVTNYAQRFQGRVTMTRDTSISTAYMELSRLKSDDTAVYFCARMGDGAVFDFWGQGTLVTVSS
VL: DIQLTQSPSSLSASVGDRVTITCRASQRISSFLNWYQQKPGKVPKLLIYTASNLQNGVPSRFSGTGSGTDFTLTISSLQPEDFATYYCQQSYRTPLTFGGGTKVDIKR
notes: H1H: human IgG1 Fc
B16: H1H5798B (antibody, human IgG1, V domains shown)
VH: QVQLVQSGGGLVKPGGSLRLSCAASGFTFSSYDMSWVRQAPGKGLEWVSYISSSGNTIHYADSVKGRFTISRDNSKNSLYLQMNSLRAEDTAVYYCAKAGPATVTRRYYYYYGLDVWGQGTTVTVSS
VL: DIVMTQSPSSLSASVRDRVTITCRASQRISSYLNWFQQKPGKAPKVLIYTASSLQNGVPSRFSGSGSGTDFTLTISSLQPEDFATYYCQQSYRTPLTFGGGTKVEIKR
notes: H1H: human IgG1 Fc
B17: H1H5801B (antibody, human IgG1, V domains shown)
VH: QVQLVQSGGGVVQPGGSLRLSCAASGFTFDDYAMHWVRQAPGKGLEWVSLISGDGGSTYYADSVKGRFTISRDNSKNSLYLQMNSLRTEDTALYYCAKDDSSSSWYYYYYGMDVWGRGTTVTVSS
VL: DIQMTQSPSSLSASVGDRVTITCRASQRISSYLNWYQQKPGKAPKVLISVASSLQSGVPSRFSGSGSGTDFTLTISSLQPEDFASYYCQQSYNTPLTFGGGTKVEIKR
notes: H1H: human IgG1 Fc

Key:
[1] = target: T1, human CD3 expressed on cells (Jurkat cells; human T-cells of PBMC) (human, UniProt P09693 23-182; P20963 22-164); experiment: FACS titration on Jurkat cells, monovalent 1-arm antibody
T1 construct: whole, on cells; Native CD3 on the cell surface; also called hPBMC
T1 sequence (chain, as listed by the source, chain 1 of 4): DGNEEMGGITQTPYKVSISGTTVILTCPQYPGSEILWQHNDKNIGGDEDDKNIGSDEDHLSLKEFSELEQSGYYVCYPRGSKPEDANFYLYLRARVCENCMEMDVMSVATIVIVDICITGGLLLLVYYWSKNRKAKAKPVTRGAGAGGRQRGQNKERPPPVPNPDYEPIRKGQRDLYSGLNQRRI
T1 sequence (chain, as listed by the source, chain 2 of 4): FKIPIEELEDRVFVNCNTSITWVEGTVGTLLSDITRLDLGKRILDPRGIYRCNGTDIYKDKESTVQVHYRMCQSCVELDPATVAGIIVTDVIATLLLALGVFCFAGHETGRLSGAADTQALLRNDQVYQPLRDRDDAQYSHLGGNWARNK
T1 sequence (P09693 23-182, chain 3 of 4): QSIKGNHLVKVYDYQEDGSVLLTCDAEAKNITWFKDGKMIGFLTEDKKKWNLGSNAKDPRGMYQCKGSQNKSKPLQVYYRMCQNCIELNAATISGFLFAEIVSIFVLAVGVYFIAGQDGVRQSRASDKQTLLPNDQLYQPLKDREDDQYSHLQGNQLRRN
T1 sequence (P20963 22-164, chain 4 of 4): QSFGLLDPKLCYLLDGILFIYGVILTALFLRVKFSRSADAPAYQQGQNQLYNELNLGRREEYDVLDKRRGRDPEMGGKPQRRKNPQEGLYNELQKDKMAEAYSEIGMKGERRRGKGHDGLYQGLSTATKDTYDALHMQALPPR
Protocol: (§1) FACS data was acquired using the following protocol: Cells at 2×10⁵ per well were incubated with serially diluted antibodies for 30 min on ice. Post incubation, cells were washed and secondary antibody was added and incubated for an additional 30 minutes. After incubation, cells were washed, re-suspended in cold PBS containing 1% BSA and analyzed by flow cytometry with viable Jurkat cells gated by side and forward scatters. The EC₅₀s for cell binding titration were determined using Prism software with values calculated using a 4-parameter non-linear regression analysis.

[2] = target: cynomolgus monkey CD3 expressed on monkey T-cells (PBMCs) (cynomolgus monkey, UniProt Q95LI5 22-198; Q95LI8 22-171); experiment: cell-based or functional assay
cynomolgus monkey CD3 expressed on monkey T-cells (PBMCs), sequence (Q95LI5 22-198, chain 1 of 2): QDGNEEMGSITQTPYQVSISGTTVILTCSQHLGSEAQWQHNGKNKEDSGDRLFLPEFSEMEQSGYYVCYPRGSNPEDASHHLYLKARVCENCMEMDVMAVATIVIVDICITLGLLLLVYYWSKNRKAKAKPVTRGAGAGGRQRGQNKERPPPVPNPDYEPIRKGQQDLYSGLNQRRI
cynomolgus monkey CD3 expressed on monkey T-cells (PBMCs), sequence (Q95LI8 22-171, chain 2 of 2): as the sequence (chain, as listed by the source, chain 2 of 4) above, with I5V, N15K, I20V, S32T, D33N, I34N, T64A, S74N, V83L, H141R counted along it

[3] = target: T1, human CD3 expressed on cells (Jurkat …); experiment: cell-based or functional assay
[4] = target: T1, human CD3 expressed on cells (Jurkat …); experiment: cell-based or functional assay; remark: listed apart in the source
[5] = target: T1, human CD3 expressed on cells (Jurkat …); experiment: FACS titration on Jurkat cells (CD3+ human T-cell line)
Protocol: as §1

[6] = target: T1, human CD3 expressed on cells (Jurkat …); experiment: cell-based or functional assay; remark: listed apart in the source
[7] = target: T1, human CD3 expressed on cells (Jurkat …); experiment: cell-based or functional assay; remark: listed apart in the source

Row | Binder | EC50 [1] | EC50 [M] mfPBMC Proliferation [2] | U937 Cytotoxicity Human T-cells [3] | EC50 [M] hPBMC Proliferation [4] | EC50 [5] | EC50 [M] hPBMC Proliferation [6] | U937 Cytotoxicity Human T-cells [7] | binding result [5]
1 | B1 | 0.937 nM | 6.75e-11 M | 5.3 pM | 1.07e-12 M |  |  |  | 
2 | B2 | 1.95 nM |  | 10.8 pM | 1.15e-12 M |  |  |  | 
3 | B3 |  |  |  |  | 0.343 nM | 1.09e-12 M | 18.5 pM | 
4 | B4 |  |  |  |  |  | 9.14e-11 M | 379 pM | 
5 | B5 |  |  |  |  | 1.23 nM | 4.24e-12 M | 51.6 pM | 
6 | B6 |  |  |  |  | 3.38 nM | 4.86e-12 M | 96.5 pM | 
7 | B7 |  |  |  |  | 1.9 nM | 2.13e-12 M | 88600 pM | 
8 | B8 |  |  |  |  |  | 5.17e-12 M | 5.18 pM | no binding
9 | B9 |  |  |  |  | 1.1 nM | 1.79e-12 M | 61 pM | 
10 | B10 |  |  |  |  | 3.77 nM | 1.75e-12 M | 80.1 pM | 
11 | B11 |  |  |  |  | 3.55 nM | 2.71e-12 M | 87.1 pM | 
12 | B12 |  |  |  |  | 5.87 nM | 6.47e-12 M | 140 pM | 
13 | B13 |  |  |  |  | 4.62 nM | 3.28e-12 M | 88.5 pM | 
14 | B14 |  |  |  |  | 39.6 nM | 1.07e-11 M | 576 pM | 
15 | B15 |  |  |  |  | 2.04 nM | 3.09e-12 M | 67.4 pM | 
16 | B16 |  |  |  |  | 5.57 nM | 2.59e-12 M | 181 pM | 
17 | B17 |  |  |  |  | 15.5 nM | 1.09e-12 M | 92.3 pM | 
